Two substances from article PMC6697681, “The predominance of nucleotidyl activation in bacterial phosphonate biosynthesis” (Nature Communications, 2019) can be followed below.

The Km is the concentration of substrate that gives half-maximal velocity. What is called kcat is the maximal rate divided by the concentration of active sites. Broadly, the kcat/Km is the turnover number divided by the Michaelis constant.

The test system of data set [1] is C[N+](C)(C)CCOP(=O)([O-])O. Kind of data set: purified protein. The following applies: saturating CTP (4 mM), 7 mM MgCl2, room temperature; fit with substrate inhibition.
In data set [2] the test system is NCCP(=O)(O)O. Put plainly: purified protein. The following applies: saturating CTP (4 mM), 7 mM MgCl2, room temperature.

On to “Ari-PntC (Ari1348) (Lancefieldella rimae ATCC 49626)”, for which, in data set [1], the Michaelis constant (Km) came out at 1000 ± 800 µM, the kcat was 0.7 ± 0.3 s⁻¹ and the kcat/Km worked out at 720 M⁻¹ s⁻¹. The Km in data set [2] was found to be 12 ± 1 µM.
Consider Spn-LicC (Streptococcus pneumoniae R6), for which, in data set [1], the Km worked out at 2.36 ± 0.65 µM and the kcat amounted to 1.06 ± 0.04 s⁻¹. Moreover, in data set [2], the Km is listed as 318 ± 129 µM and the kcat was found to be 0.723 ± 0.054 s⁻¹.
